Measured values as given in patent publication US20230133118A1, “COMPOSITIONS AND METHODS FOR TREATING CANCER” (Adagene AG, priority 2020, published 2023).
Where “and” joins values, the source holds several entries; their conditions need not be identical. Equal values may be shown once. Marks after values point to notes of the source that are not given here.

Key:
[1] = Clinical immunogenicity, anti-drug antibody (ADA) immunoassay; assay type: in vivo, human
Experimental: Blood samples were collected as described in the PK analysis. The anti-drug-antibody (ADA) to ADG106 in human serum was measured using a validated Affinity Capture and Elution (ACE) based immunoassay. All samples were first analyzed for ADAs in a screening assay. Study samples with results below the screening cut-off were reported as negative for ADAs. In the event of a positive result in the screening assay, samples were analyzed in the confirmatory assay. All samples confirmed positive were reported as positive.

[2] = tested on: peripheral CD4+ and CD8+ T cells; experiment: Ki-67 expression on peripheral T cells of patients by flow cytometry; assay type: in vivo, human
Excerpt: T cell proliferation was examined by analyzing Ki-67 expression using flow cytometry analysis. Soluble CD137 (sCD137) levels in plasma were also examined using a validated MSD-based electrochemiluminescence assay.

NK (CD16+/CD56+) cells [3] = experiment: TBNK flow cytometry of patient peripheral blood, NK cell percentage; assay type: in vivo, human; conditions: for Percentage of NK cells (CD3-CD56+/CD16+), Postdose: individual patients
Experimental: Pre- and post-treatment peripheral blood samples from 31 patients in a phase 1 trial were collected for biomarker analyses. The TBNK flow cytometry assay was employed to measure the composition of T (CD3+, CD4+/CD8+ subsets), B (CD19+) and NK (CD16+/CD56+) cells in peripheral blood samples. NK cell levels were determined as percentages of CD45+ lymphocytes and absolute cell counts.

[4] = tested on: L5178-R murine T cell lymphoma; experiment: L5178-R murine T cell lymphoma syngeneic model; assay type: in vivo, DBA/2 mice; conditions: 20 mg/kg i.p. once every 3 days
Excerpt: The animals were randomized and treatment started when tumor volumes reach 50-80 mm^3, or on the day of cell inoculation (FIGS. 17A and 17C). Each group consisted of 8 tumor-bearing mice. […] Tumor growth and animal body weight were monitored every 2-3 days.

[5] = tested on: 3LL (JCRB) murine lung cancer cells; experiment: 3LL lung cancer model, ADG106 with atezolizumab; assay type: in vivo, C57BL/6 mice; conditions: 10 mg/kg i.p. twice a week for 3 weeks
Excerpt: C57BL/6 mice (n=10 per group, female, 6-8 weeks old) were inoculated subcutaneously with 3LL (JCRB) murine lung cancer cells, a Lewis lung cancer cell line.

Lewis lung cancer cells [6] = experiment: Lewis lung cancer model, ADG106 with anti-PD-1 antibody 2E5; assay type: in vivo, C57BL/6 mice; conditions: 5 mg/kg i.p. twice a week for 2 weeks
Excerpt: C57BL16 mice (n=8 per group, female, 6-8 weeks old) were transplanted subcutaneously with 5×10^5 Lewis lung cancer cells. […] Tumor growth was monitored twice weekly and reported as mean tumor volume ±SEM over time.

4T1 breast cancer cells [7] = experiment: 4T1 breast cancer model, ADG106 with ADG116; assay type: in vivo, BALB/c mice; conditions: ADG106 5 mg/kg, ADG116 2 mg/kg i.p. twice a week for 2 weeks
Excerpt: (§1) Tumor growth was monitored twice weekly and is reported as mean tumor volume ±SEM over time.

4T1 breast cancer cells [8] = experiment: 4T1 breast cancer model, ADG106 with docetaxel; assay type: in vivo, BALB/c mice; conditions: 5 mg/kg; ADG106 i.p. twice a week 4 doses, Docetaxel i.v. once a week 3 doses
Excerpt: as §1

Lewis lung cancer cells [9] = experiment: Lewis lung cancer model, ADG106 with cisplatin; assay type: in vivo, C57BL/6 mice; conditions: 5 mg/kg i.p.
Excerpt: C57BL/6 mice (n=8 per group, female, 6-8 weeks old) were transplanted subcutaneously with 5×10^5 Lewis lung cancer cells. […] Tumor growth was monitored twice weekly and reported as mean tumor volume ±SEM over time.

MC38 colon cancer cells = experiment: MC38 colon cancer model, ADG106 with local radiation; assay type: in vivo, C57BL/6 mice; conditions: 10 mg/kg twice a week for 3 weeks
Excerpt: C57BL/6 mice (n=8 per group, female, 6-8 weeks old) were transplanted subcutaneously with 5×10^5 MC38 colon cancer cells. […] Tumor growth was monitored twice weekly and reported as mean tumor volume ±SEM over time.

CD137 receptor = experiment: Cellular NFκB reporter gene assay (CD137-expressing NFκB-Luc Jurkat reporter cells); assay type: cell-based, human; conditions: functional cellular NFκB reporter gene assay
Experimental: The CD137-expressing NFκB-Luc Jurkat reporter cells were stimulated with the anti-CD137 antibodies in the absence (left panel) or presence (right panel) of co-cultured CHO-K1 cell expressing human FcγRIIb. Luciferase activity was measured by bioluminescence assay.

T cells = experiment: T cell activation in vitro (with anti-CD3 antibody co-treatment); assay type: cell-based
Excerpt: To elaborate, there could be unquantified/uncertain combination effect with other MOAs, particularly with Immuno-oncology (IO) agents which could be potentially additive and/or synergistic for AEs.

CD137 [10] = experiment: Binding to recombinant CD137 and CD137 on activated T cells; parameters: species or system human
Excerpt: (§2) This was expected given that CD137 is known to function as a co-stimulatory T cell receptor. […] This property might prevent the potential of dual independent activation of CD137 potentially accounting for its distinct pharmacology and toxicology profile among this class of therapeutic antibodies.

[11] = molecular target: CD137 / CD137 ligand (4-1BBL) (Homo sapiens, UniProt Q07011); experiment: Blocking of CD137 / CD137 ligand interaction; assay type: binding
Excerpt: as §2

C1q, human FcγR1 = experiment: C1q and FcγR1 binding, NK cell ADCC on activated human CD8+ T cells
human blood = experiment: Cytokine release in human blood ex vivo; assay type: cell-based
NK (CD16+/CD56+) cells [12] = experiment: TBNK flow cytometry of patient peripheral blood, NK cell percentage; assay type: in vivo, human; conditions: 32 patients analyzed
CD137 [13] = molecular target: CD137 (Homo sapiens, UniProt Q07011); experiment: Receptor occupancy calculated from drug plasma concentration and KD
[14] = Clinical pharmacokinetics, serum ADG106 by ELISA, non-compartmental analysis
Experimental: Blood samples for PK analysis were collected at Cycle 1 (Day 1: pre-dose and 2, 6, 12, and 24 hours after the end of infusion; once on Days 8, 15, and 22), Day 1 pre-dose and 2 hours after the end of infusion of subsequent cycles, and at the End of Treatment. […] PK parameters were estimated using a non-compartmental method with WinNonlin.

Chain of CD137 (Homo sapiens, UniProt Q07011) (Q07011 24-255): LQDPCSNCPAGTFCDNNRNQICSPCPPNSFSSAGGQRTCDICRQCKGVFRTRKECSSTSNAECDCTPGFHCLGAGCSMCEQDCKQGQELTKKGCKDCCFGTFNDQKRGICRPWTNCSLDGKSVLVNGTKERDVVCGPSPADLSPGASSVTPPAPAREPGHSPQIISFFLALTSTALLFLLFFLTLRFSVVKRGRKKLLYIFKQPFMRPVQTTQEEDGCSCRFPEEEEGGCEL
Chain of CD137 / CD137 ligand (4-1BBL) (Q07011 24-255): as above

ADG106: fully human agonistic anti-CD137 monoclonal IgG4 antibody; heavy chain SEQ ID NO: 10, light chain SEQ ID NO: 11
treatment emergent or boosted ADA ([1]; Chinese patients tested so far): 5 of 23
patients with treatment-induced anti-drug antibodies ([1]; patients tested): about 20%
increase in the frequency of Ki-67+CD4+ T cells ([2]; patient R011): increased about one fold
increase in the frequency of proliferating CD8+ T cells ([2]; patient R011): four to five fold increase
total CD8+ T cells expressing Ki-67 at peak ([2]; patient R011, 21 days after infusion): ~25%
Percentage of NK cells (CD3-CD56+/CD16+), Postdose (NK (CD16+/CD56+) cells [3]; C1D8): 25.14% and 28.38% and 11.18% and 22.03% and 35.85% and 36.13% and 8.25% and 22.79% and 46.22% and 15.01% and 14.06% and 34.54% and 11.84% and 32.43% and 10.14% and 23.1% and 55% and 35.4% and 19.5% and 14.7% and 25%
Percentage of NK cells (CD3-CD56+/CD16+), Postdose (NK (CD16+/CD56+) cells [3]; C1D15): 21.21* % and 22.19* %
Percentage of NK cells (CD3-CD56+/CD16+), Postdose (NK (CD16+/CD56+) cells [3]; C1D21): 39.58^# % and 4.27^# % and 20.01^# % and 34.74^# % and 40.45^# % and 26.93^# % and 27.23^# % and 18.81^# % and 16.65^# %
dose saturating CD137 receptors on NK cells (NK cell proliferation effect) (NK (CD16+/CD56+) cells [3]; patients): ≥ 1.5 mg/kg
antitumor activity [4]: resistant to ADG106 treatment
anti-tumor activity, monotherapy [5]: showed anti-tumor activity
tumor growth, single agent (Lewis lung cancer cells [6]): significantly inhibit tumor growth
anti-tumor activity, monotherapy (4T1 breast cancer cells [7]): showed anti-tumor activity
anti-tumor activity, mono-therapy (4T1 breast cancer cells [8]): marginal anti-tumor activity
anti-tumor activity, monotherapy (Lewis lung cancer cells [9]): showed anti-tumor activity
antitumor activity, alone (MC38 colon cancer cells): marginal if any antitumor activity
potency to activate recombinant human, monkey, mouse, and rat CD137 receptors (CD137 receptor): comparable nanomolar potency
concentration range triggering observable, not maximal T cell activation (T cells; in vitro): 1 to 3 µg/mL
concentration range triggering robust T cell activation (T cells; with anti-CD3 antibody co-treatment): ≥ 10 µg/mL
affinity to CD137 on activated cynomolgus monkey and human T cells (CD137 [10]): low nanomolar affinity
blocking of the interaction of CD137 to the CD137 ligand (4-1BBL) [11]: fully blocks
C1q binding (C1q, human FcγR1): unable to bind C1 q
binding affinity for human FcγR1 protein (C1q, human FcγR1): low binding affinity
NK cell antibody-dependent cell-mediated cytotoxicity on activated human CD8+ T cells (C1q, human FcγR1; human whole cell assays): did not show detectable
cytokine (IL-2, IL-4, IL-6, IL-10, TNF-α, IFN-γ, IL-17) release (human blood): did not stimulate cytokine
patients with a decrease of the NK cell level (NK (CD16+/CD56+) cells [12]): 6%
patients with no change of the NK cell level (NK (CD16+/CD56+) cells [12]): 6%
patients with an increase of the NK cell level in peripheral blood (NK (CD16+/CD56+) cells [12]; after first cycle): 88%
Receptor occupancy (CD137 [13]; 0.03 mg/kg): 58%
Receptor occupancy (CD137 [13]; 0.1 mg/kg): 82%
Receptor occupancy (CD137 [13]; 0.3 mg/kg): 93%
Calculated Receptor Occupancy (CD137 [13]; 1 mg/kg): 98%
AUC(0-t) ([14]; Chinese study, 0.1 mg/kg IV): 255 µg·h/mL
CLz ([14]; Chinese study, 0.1 mg/kg IV): 8.88 mL/day/kg
AUC(0-t) ([14]; Chinese study, 0.5 mg/kg IV): 1761 µg·h/mL
CLz ([14]; Chinese study, 0.5 mg/kg IV): 6.72 mL/day/kg
T½ ([14]; Chinese study, 0.5 mg/kg IV): 146 h
AUC(0-t) ([14]; Chinese study, 1.5 mg/kg IV): 4162 µg·h/mL
CLz ([14]; Chinese study, 1.5 mg/kg IV): 7.92 mL/day/kg
T½ ([14]; Chinese study, 1.5 mg/kg IV): 180 h
AUC(0-t) ([14]; Chinese study, 3 mg/kg IV): 10016 µg·h/mL
CLz ([14]; Chinese study, 3 mg/kg IV): 6 mL/day/kg
T½ ([14]; Chinese study, 3 mg/kg IV): 214 h
AUC(0-t) ([14]; Chinese study, 5 mg/kg IV): 20966 µg·h/mL
CLz ([14]; Chinese study, 5 mg/kg IV): 5.28 mL/day/kg
T½ ([14]; Chinese study, 5 mg/kg IV): 173 h
AUC(0-t) ([14]; Chinese study, 10 mg/kg IV): 39658 µg·h/mL
CLz ([14]; Chinese study, 10 mg/kg IV): 5.52 mL/day/kg
T½ ([14]; Chinese study, 10 mg/kg IV): 132 h
AUC(0-t) ([14]; US study, cycle 1, 0.03 mg/kg IV, n=1): 0.626 µg·h/mL
AUC(0-t) ([14]; US study, cycle 1, 0.1 mg/kg IV, n=1): 0.668 µg·h/mL
AUC(0-t) ([14]; US study, cycle 1, 0.3 mg/kg IV, n=1): 1.387 µg·h/mL
AUC(0-t) ([14]; US study, cycle 1, 1 mg/kg IV, n=3): 3.8767 µg·h/mL
AUC(0-t) ([14]; US study, cycle 1, 3 mg/kg IV, n=3): 18.42 µg·h/mL
mean half-life ([14]; doses ≥0.5 mg/kg): around 7 days
